One assay addresses bovine trypsin (bovine) (UniProt P00760). As to the kind of experiment: enzyme inhibition; trypsin 48.5 pM.
In another assay the target is human plasmin (human) (UniProt P00747). Kind of assay: enzyme inhibition; human plasmin 50 pM.
In assay [1] the target is human plasma kallikrein (human) (UniProt P03952). Kind of assay: enzyme inhibition; apparent Ki.
Assay [2] concerns the target bovine pancreatic kallikrein (bovine). As to the kind of experiment: enzyme inhibition; bovine pancreatic kallikrein 92.0 pM.
The target is the same in assay [3]. Kind of assay: enzyme inhibition, tight-binding fit; bovine pancreatic kallikrein 92 pM, PFR-AMC.
Assay [4] has the same target. As to the kind of experiment: enzyme inhibition; comparison of Ki values with aprotinin.

Sequence of bovine trypsin (bovine) (P00760 24-246): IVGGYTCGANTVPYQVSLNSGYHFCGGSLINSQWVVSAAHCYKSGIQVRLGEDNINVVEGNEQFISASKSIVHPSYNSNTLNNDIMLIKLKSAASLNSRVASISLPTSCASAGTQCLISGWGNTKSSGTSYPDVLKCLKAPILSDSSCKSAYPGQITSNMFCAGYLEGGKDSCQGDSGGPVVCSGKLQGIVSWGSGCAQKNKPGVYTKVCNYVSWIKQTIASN
Sequence of human plasmin (human) (P00747 97-810 limits assumed): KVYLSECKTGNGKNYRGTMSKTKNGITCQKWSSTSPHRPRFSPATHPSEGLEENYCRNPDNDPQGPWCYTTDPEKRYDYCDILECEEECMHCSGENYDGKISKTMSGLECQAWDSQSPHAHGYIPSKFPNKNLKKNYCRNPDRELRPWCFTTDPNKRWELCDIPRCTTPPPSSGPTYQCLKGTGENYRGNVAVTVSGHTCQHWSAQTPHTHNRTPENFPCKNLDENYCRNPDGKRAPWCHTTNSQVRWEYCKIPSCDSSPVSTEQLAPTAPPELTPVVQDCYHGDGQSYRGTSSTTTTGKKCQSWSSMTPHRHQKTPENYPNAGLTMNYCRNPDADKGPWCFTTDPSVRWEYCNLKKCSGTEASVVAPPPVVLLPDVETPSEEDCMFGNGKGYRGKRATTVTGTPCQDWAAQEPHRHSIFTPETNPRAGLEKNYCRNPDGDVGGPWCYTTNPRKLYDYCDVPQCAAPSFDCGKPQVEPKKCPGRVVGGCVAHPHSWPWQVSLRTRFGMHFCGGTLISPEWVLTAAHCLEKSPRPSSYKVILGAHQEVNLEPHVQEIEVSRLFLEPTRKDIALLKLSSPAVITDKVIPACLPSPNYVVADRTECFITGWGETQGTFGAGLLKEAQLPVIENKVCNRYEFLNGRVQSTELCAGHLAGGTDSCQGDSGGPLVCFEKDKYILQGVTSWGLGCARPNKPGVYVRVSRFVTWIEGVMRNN
Sequence of human plasma kallikrein (human) (P03952 20-638 limits assumed): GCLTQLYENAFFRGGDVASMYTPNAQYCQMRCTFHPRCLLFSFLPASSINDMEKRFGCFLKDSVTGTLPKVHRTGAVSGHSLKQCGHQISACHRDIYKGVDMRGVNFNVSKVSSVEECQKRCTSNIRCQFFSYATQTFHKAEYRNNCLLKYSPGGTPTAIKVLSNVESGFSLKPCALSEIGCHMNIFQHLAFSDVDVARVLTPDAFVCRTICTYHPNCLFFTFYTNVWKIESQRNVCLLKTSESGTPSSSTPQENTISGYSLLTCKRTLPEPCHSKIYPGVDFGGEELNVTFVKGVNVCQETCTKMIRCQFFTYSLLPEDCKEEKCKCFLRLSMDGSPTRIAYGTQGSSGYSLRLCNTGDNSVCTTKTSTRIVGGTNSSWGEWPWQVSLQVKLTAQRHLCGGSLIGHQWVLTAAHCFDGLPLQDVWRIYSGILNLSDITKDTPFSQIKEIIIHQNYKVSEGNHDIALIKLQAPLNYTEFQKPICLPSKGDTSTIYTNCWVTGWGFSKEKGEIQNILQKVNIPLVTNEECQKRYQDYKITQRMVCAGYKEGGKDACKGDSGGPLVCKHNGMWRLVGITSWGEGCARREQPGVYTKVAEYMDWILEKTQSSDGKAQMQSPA

As for “native human placental bikunin isolated from placenta (from UniProt O43291 28-203)”, the Ki with bovine trypsin (bovine) turned out to be 0.13 nM; with human plasmin (human), 1.9 nM.
On to “recombinant placental bikunin (102-159) expressed in yeast SC101 (from UniProt O43291 129-186)”, for which the Ki in assay [1] turned out to be 0.35 nM.
In assay [2], “synthetic placental bikunin (7-64), first preparation (from UniProt O43291 34-91)” showed a Ki of 0.4 nM.
Turning to “synthetic placental bikunin (102-159) (from UniProt O43291 129-186)”, the Ki in assay [3] and in assay [2] was 0.4 nM throughout. The same substance showed a fold higher Ki than aprotinin in assay [4] of 20 fold.

(Values after patent publication US7019123.)
